Experiments:
[1] = 125I-FSH binding to CHO-hFSHR membranes ± Compound 5; conditions: glycan lost; control: glycosylated FSH (about 3-fold more binding with Compound 5)
[2] = biological target: FSHR of the PathHunter FSHR β-arrestin assay cells (UniProt P23945); assay: split reporter (BiFC, NanoBiT); PathHunter FSHR β-arrestin recruitment assay (DiscoveRx 93-0517C2) in CHO cells; cells stimulated with FSH, Compound 5, both, or the βT60E mutant; recruited β-arrestin normalized to 100% for the maximum response of FSH
Sequence of FSHR of the PathHunter FSHR β-arrestin assay cells (P23945 18-695): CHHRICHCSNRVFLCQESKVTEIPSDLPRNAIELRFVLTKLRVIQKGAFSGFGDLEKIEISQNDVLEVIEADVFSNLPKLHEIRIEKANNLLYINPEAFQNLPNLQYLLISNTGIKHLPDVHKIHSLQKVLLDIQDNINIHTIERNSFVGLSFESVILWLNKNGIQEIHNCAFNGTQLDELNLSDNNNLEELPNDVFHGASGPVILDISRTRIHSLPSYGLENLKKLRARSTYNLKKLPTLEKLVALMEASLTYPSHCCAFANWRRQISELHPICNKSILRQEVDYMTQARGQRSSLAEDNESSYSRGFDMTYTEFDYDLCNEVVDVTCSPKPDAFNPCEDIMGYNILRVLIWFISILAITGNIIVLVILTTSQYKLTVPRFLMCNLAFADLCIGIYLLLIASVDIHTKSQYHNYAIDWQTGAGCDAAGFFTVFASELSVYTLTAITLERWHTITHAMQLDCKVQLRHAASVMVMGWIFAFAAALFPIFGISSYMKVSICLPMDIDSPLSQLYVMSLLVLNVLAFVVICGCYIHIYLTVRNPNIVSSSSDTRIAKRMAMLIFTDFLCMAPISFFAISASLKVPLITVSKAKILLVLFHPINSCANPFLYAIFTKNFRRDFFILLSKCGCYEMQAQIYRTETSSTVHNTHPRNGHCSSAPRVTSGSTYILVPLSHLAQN

Sequence of β-arrestin of the PathHunter FSHR β-arrestin assay cells (P32121 whole entry): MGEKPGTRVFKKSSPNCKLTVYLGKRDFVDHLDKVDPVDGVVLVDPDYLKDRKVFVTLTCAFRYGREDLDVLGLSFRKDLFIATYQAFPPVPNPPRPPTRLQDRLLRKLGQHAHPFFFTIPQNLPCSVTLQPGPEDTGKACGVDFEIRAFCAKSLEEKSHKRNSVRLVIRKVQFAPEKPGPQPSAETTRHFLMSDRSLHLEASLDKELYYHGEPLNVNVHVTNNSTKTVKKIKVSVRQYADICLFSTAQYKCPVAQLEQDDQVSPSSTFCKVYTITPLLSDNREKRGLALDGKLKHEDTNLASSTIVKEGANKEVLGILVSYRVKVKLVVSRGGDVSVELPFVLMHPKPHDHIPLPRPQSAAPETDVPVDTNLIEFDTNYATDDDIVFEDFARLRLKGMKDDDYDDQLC
Sequence of FSH α-subunit: αN52D (chain, as listed by the source N52D): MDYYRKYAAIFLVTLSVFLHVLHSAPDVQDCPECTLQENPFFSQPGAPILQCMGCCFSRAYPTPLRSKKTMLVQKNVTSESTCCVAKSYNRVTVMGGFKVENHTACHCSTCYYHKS

Substance	other: Compound 5 enhancement of FSHR binding [1]	β-arrestin recruited with Compound 5 plus FSH at EC100, percent of the maximum with FSH alone [2] [%]	β-arrestin recruited with FSH plus a high concentration of Compound 5, percent of the maximum with FSH alone [2] [%]
FSH α-subunit: αN52D	decreases	–	–
β-arrestin of the PathHunter FSHR β-arrestin assay cells (from UniProt P32121 1-409) (natural protein)	–	280	280
